Experiments:
[1] = target: TSHR-LHR-6 chimeric receptor; test: radioligand binding; membrane preparations of TSHR wild type, mutants and constructs, 125I-hTSH with increasing unlabelled hTSH; with MAb 311.87 (134 nM) (Table 5)
[2] = target: TSHR-LHR-6 chimeric receptor; test: radioligand binding; membrane preparations of TSHR wild type, mutants and constructs, 125I-hTSH with increasing unlabelled hTSH; with NMIgG (control) (Table 5)

Sequence of human thyroid stimulating hormone (hTSH) (P01215 25-116): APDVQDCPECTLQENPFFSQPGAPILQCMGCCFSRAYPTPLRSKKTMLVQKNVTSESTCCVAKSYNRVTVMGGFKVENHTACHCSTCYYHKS
Sequence of human thyroid stimulating hormone (hTSH) (P01222 21-132): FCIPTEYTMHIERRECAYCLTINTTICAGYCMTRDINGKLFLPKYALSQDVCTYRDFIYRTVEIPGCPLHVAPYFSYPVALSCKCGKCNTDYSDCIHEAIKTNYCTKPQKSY

Kd with MAb 311.87 [1]: 390 pM
Kd [2]: 270 pM
Substance: human thyroid stimulating hormone (hTSH) (from UniProt P01215 25-116; P01222 21-132) (ligand)
